Measured values: IntAct's records for PubMed 16888622

B1: TATA-box-binding protein (Saccharomyces cerevisiae), P13393 (parent)
chain: MADEERLKEFKEANKIVFDPNTRQVWENQNRDGTKPATTFQSEEDIKRAAPESEKDTSATSGIVPTLQNIVATVTLGCRLDLKTVALHARNAEYNPKRFAAVIMRIREPKTTALIFASGKMVVTGAKSEDDSKLASRKYARIIQKIGFAAKFTDFKIQNIVGSCDVKFPIRLEGLAFSHGTFSSYEPELFPGLIYRMVKPKIVLLIFVSGKIVLTGAKQREEIYQAFEAIYPVLSEFRKM
partner: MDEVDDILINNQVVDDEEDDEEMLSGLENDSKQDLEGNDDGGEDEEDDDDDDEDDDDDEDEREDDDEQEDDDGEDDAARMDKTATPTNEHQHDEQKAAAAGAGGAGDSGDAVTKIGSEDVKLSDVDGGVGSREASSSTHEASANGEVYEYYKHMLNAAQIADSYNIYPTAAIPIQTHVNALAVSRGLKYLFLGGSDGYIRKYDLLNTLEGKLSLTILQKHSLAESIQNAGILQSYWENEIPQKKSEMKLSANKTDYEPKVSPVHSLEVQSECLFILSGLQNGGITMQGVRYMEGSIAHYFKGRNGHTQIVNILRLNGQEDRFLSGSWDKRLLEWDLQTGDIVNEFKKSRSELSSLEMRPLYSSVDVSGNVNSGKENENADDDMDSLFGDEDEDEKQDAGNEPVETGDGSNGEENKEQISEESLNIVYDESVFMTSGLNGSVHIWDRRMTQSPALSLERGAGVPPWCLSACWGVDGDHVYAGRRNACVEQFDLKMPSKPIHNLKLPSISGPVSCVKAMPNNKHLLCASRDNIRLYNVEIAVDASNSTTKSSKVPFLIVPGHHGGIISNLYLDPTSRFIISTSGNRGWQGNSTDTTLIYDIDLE

Variants of: B1
Conditions: with spt8_yeast SPT8, P38915

effect of a mutation on the interaction	Variant
disrupting interaction	R171E
